By Kd is commonly meant the constant that tells how readily two partners part at equilibrium. A lower Kd goes with tighter binding.

What all share (experiment): ITC (calorimetric titration)
What all share (conditions): chain shown with the change

Assay [1] addresses linear di-SUMO2 (2×SUMO2-ΔN11), P61956.
Assay [2] deals with linear tetra-SUMO2 (4×SUMO2-ΔN11), P61956.
For assay [3], the target named is linear tri-SUMO, P61956.
Sequence of linear tri-SUMO, P61956 (P61956 other isoform, or with tags, fused parts or gaps): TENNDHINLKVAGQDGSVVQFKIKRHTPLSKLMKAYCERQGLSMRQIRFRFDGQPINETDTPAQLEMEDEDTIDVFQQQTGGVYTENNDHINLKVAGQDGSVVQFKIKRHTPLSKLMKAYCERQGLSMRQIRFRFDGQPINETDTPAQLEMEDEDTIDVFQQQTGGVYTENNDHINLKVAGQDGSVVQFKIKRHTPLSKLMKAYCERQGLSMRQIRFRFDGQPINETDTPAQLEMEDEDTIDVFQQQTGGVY

Sequence of linear di-SUMO2 (2×SUMO2-ΔN11), P61956 (P61956 other isoform, or with tags, fused parts or gaps mutant): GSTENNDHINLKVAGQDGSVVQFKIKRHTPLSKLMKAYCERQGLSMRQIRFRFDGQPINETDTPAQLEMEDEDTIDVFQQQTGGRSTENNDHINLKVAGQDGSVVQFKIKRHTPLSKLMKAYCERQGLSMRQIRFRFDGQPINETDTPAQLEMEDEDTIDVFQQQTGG
Sequence of linear tetra-SUMO2 (4×SUMO2-ΔN11), P61956 (P61956 other isoform, or with tags, fused parts or gaps mutant): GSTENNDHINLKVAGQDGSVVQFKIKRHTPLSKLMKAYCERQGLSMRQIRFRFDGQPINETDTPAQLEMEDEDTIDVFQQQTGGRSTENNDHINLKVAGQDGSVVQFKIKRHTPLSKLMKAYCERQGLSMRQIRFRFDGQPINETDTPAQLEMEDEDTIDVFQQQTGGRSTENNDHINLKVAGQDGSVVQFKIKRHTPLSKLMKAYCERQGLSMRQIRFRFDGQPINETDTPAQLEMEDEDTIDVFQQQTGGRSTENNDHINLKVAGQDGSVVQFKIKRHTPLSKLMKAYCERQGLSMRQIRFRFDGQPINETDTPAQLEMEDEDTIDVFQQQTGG

B1: RNF4 1–125 (RNF4-SIM domain, wt), P78317 SIM3/4mut (protein)
chain: MSTRKRRGGAINSRQAQKRTREATSTPEISLEAEPIELVETAGDEIVDLTCESLEPVVAAAAHNDSAAAADERRRPRRNARRLPQDHADSCVVSSDDEELSRDRDVYVTTHTPRNARDEGATGLR
As for B1, the Kd is 69 µM in assay [1] and 22 µM in assay [2].

B2: RNF4 1–125 (RNF4-SIM domain, wt), P78317 SIM1/4mut (protein)
chain: MSTRKRRGGAINSRQAQKRTREATSTPEISLEAEPAAAAETAGDEIVDLTCESLEPVVVDLTHNDSAAAADERRRPRRNARRLPQDHADSCVVSSDDEELSRDRDVYVTTHTPRNARDEGATGLR
In the case of B2, in assay [2], the Kd stood at 1.3 µM.

B3: RNF4 1–125 (RNF4-SIM domain, wt), P78317 SIM3mut (protein)
chain: MSTRKRRGGAINSRQAQKRTREATSTPEISLEAEPIELVETAGDEIVDLTCESLEPVVAAAAHNDSVVIVDERRRPRRNARRLPQDHADSCVVSSDDEELSRDRDVYVTTHTPRNARDEGATGLR
Consider B3, for which the Kd in assay [1] amounted to 91 µM; in assay [2], 2.2 µM; in assay [3], 29 µM.

B4: RNF4 1–125 (RNF4-SIM domain, wt), P78317 SIM4mut (protein)
chain: MSTRKRRGGAINSRQAQKRTREATSTPEISLEAEPIELVETAGDEIVDLTCESLEPVVVDLTHNDSAAAADERRRPRRNARRLPQDHADSCVVSSDDEELSRDRDVYVTTHTPRNARDEGATGLR
As for B4, the dissociation constant (Kd) in assay [2] amounted to 2.8 µM; in assay [3] it was 20 µM.

B5: RNF4 1–125 (RNF4-SIM domain, wt), P78317 SIM2/4mut (protein)
chain: MSTRKRRGGAINSRQAQKRTREATSTPEISLEAEPIELVETAGDEIAAAACESLEPVVVDLTHNDSAAAADERRRPRRNARRLPQDHADSCVVSSDDEELSRDRDVYVTTHTPRNARDEGATGLR
B5: the results for the Kd in assay [1] and in assay [2] were 69 µM and 9.4 µM, respectively.

B6: RNF4 1–125 (RNF4-SIM domain, wt), P78317 SIM1/3mut (protein)
chain: MSTRKRRGGAINSRQAQKRTREATSTPEISLEAEPAAAAETAGDEIVDLTCESLEPVVAAAAHNDSVVIVDERRRPRRNARRLPQDHADSCVVSSDDEELSRDRDVYVTTHTPRNARDEGATGLR
Take B6: the Kd in assay [1] stood at 52 µM; in assay [2] it was 2.4 µM.

B7: RNF4 1–125 (RNF4-SIM domain, wt), P78317 SIM2/3mut (protein)
chain: MSTRKRRGGAINSRQAQKRTREATSTPEISLEAEPIELVETAGDEIAAAACESLEPVVAAAAHNDSVVIVDERRRPRRNARRLPQDHADSCVVSSDDEELSRDRDVYVTTHTPRNARDEGATGLR
B7: the equilibrium dissociation constant (Kd) in assay [1] was 110 µM; in assay [2], 48 µM.

B8: RNF4 1–125 (RNF4-SIM domain, wt), P78317 SIM2mut (protein)
chain: MSTRKRRGGAINSRQAQKRTREATSTPEISLEAEPIELVETAGDEIAAAACESLEPVVVDLTHNDSVVIVDERRRPRRNARRLPQDHADSCVVSSDDEELSRDRDVYVTTHTPRNARDEGATGLR
Turning to B8, the Kd was 118 µM in assay [1], 2.1 µM in assay [2] and 25 µM in assay [3].

B9: RNF4 1–125 (RNF4-SIM domain, wt), P78317 SIM1/2mut (protein)
chain: MSTRKRRGGAINSRQAQKRTREATSTPEISLEAEPAAAAETAGDEIAAAACESLEPVVVDLTHNDSVVIVDERRRPRRNARRLPQDHADSCVVSSDDEELSRDRDVYVTTHTPRNARDEGATGLR
In assay [1], B9 came in with a dissociation constant Kd of 56 µM.

These data come from publication PMC3901395, “Multivalent interactions of the SUMO-interaction motifs in RING finger protein 4 determine the specificity for chains of the SUMO” (Biochemical Journal, 2013).
